Results published in US20250276077A1, “EPHA2 ANTIBODIES” (Immunome, Inc., priority 2022, published 2025).
“Also recorded” adds a separate entry of the source.

B1: AB-009807: sibling of AB-008873; VH SEQ ID NO: 70, VL SEQ ID NO: 81 (antibody, V domains shown)
VH: QVQLQQWGAGLLKPSETLSLTCAVYGGSFNDYYWSWIRQPPGKGLEWIGEVNHSGSTSYNPSLKSRVTISVDTSKNQFSLKLSSVTAADTAVYYCAKPFRPHCTNGVCYSGDAFDIWGQGTMVTVSS
VL: SYVLTQPPSVSVAPGQTARITCGGNNIGSKNVHWYQQKPGQAPALVVYDDSDRPSGIPEQFSGSNSGNTATLTISRVEAGDEADYYCQVWDSSSDHLVFGGGTKLTVL
B2: AB-010671: VH SEQ ID NO: 624, VL SEQ ID NO: 689; H107TI; L29SY; L92SH relative to AB-010357 (antibody, V domains shown)
VH: QVQLQQWGAGLLKPSETLSLTCAVYGGSFSDYYWSWIRQPPGKGLEWIGEINHRGSINYNNYNPSLKSRVTISVDTSKNQFSLKLSSVTAADTAVYYCAKPLRPHCINGVCYSGDAFDIWGQGTMVTVAS
VL: SYVLTQPPSVSVAPGQTARITCGGNNIGYKNVHWYQQKPGQAPVLVVYDDSDRPSGIPEQFSGSNSGNTATLTISRVEAGDEADYYCQVWDHSSDHVVFGGGTKLTVL

Assays:
[1] = test system: A549 cells; test: ADCP with RAW264.7 mouse macrophage effector cells; format: cell-based, human
Procedure: For antibody-dependent cellular phagocytosis (ADCP), the cell membranes of target cells were labeled with green fluorescent membrane dye preceding opsonization with different concentrations of antibody at room temperature for 30 minutes. RAW264.7 mouse macrophage (effector) cells were then added at a 1:1 ratio with the target cells and co-cultured at 37° C. and 5% CO2 for 2 hours. After incubation, the cell mixture was dissociated with 2 mM ethylenediaminetetraacetic acid (EDTA, pH 7.4). The cell suspension was then washed several times in an isotonic salt solution and probed with a commercially available anti-CD11b antibody, conjugated with Allophycocyanin (APC). After a 30-minute incubation at 4° C. with this antibody, the cell suspension was washed again before being analyzed by flow cytometry.

[2] = test system: A549 cells; test: ADCC (KILR target cells, NK92 CD16 chimera effector cells); format: cell-based, human
Procedure: To detect Antibody-dependent cellular cytotoxicity (ADCC), KILR™-transfected target cells were opsonized with different concentrations of the antibody at room temperature for 20 minutes. Following, NK92 cells carrying a mouse extracellular-human intracellular CD16 chimera were added at a 5:1 ratio of effector to target cells. After a 4 h co-culture at 37° C. and 5% CO2, pre-mixed KILR™ detection reagent was added to each well at equal volume and allowed to incubate for 30 min at room temperature in the dark before reading luminescence on a pate reader. Cytotoxicity was calculated after background (spontaneous release) subtraction and expressed as percent of a maximum lysis control.

[3] = test system: A549 cells; test: Flow screen (in vitro) surface binding; parameters: species or system human; conditions: flow cytometry; comparisons are to AB-008873
Procedure: Surface binding of the antibodies to in vitro grown cell lines was assessed by flow cytometry. Tumor cells were detached from their culture plate using Versene and counted. Cells were staining in BSA-containing buffer with primary antibody for 30 minutes at 4° C. with shaking. Following, cells were washed and stained with secondary PE-labeled antibody for 30 minutes at 4° C. with shaking. Before analysis on an Intellicyt iQue3 scanner, cells were counterstained with DAPI. MedFI values from live, single cells was expressed as fold over isotype control.

[4] = test system: PC3 tumors; test: In vivo PC3 model in NPG mice, ZLA-conjugated EphA2 antibodies; parameters: species or system mouse; conditions: ZLA conjugates in both IgG1 and IgG4 formats; 3 and 6 mg/kg; ~150 mm^3 and ~400 mm^3 PC3 tumors
Procedure: This experiment assessed the activity of ZLA-Conjugated EphA2 antibodies AB-010671-ZLA and AB-010699-ZLA in vivo. 2×10^6 PC3 cells were inoculated in 0.2 mL of 1:1 DPBS with Matrigel subcutaneously into each of the male NPG mice. Tumors were allowed to establish and then randomized at an average size of 150 mm^3 with 10 mice per treatment cohort. Treatment started at the day of randomization (Day 0) with weekly intravenous injections of the conjugates at the indicated doses. Body weight as well as tumor sizes were monitored twice weekly. Study was ended at day 35 after 5 doses. At endpoint, mice were euthanized, and tumors excised and weighted.
The assay was repeated with AB-010699 and AB-010671 in both IgG1 and IgG4 formats at 1, 3, and 6 mg/kg, AB-010016, and vehicle and isotype controls in mice carrying PC3 tumor cells measuring ˜150 mm^3 or ˜400 mm^3. […] FIG. 60B and FIG. 61B show the body weight of the mice over the course of the studies.

[5] = test system: SKOV3, MDAMB231, and PC3 tumor cells
Procedure: This experiment tested the cytotoxicity of antibody-drug conjugates (“conjugates”) each comprising an EphA2 antibody directly conjugated via a lysine to a ZymeLink™ Auristatin (ZLA) payload having structure (1) as disclosed above on SKOV3, MDAMB231, and PC3 tumor cells. […] The average drug to antibody ratio (DAR) for each molecule ranges from 2.9 and 3.6 as determined by Mass Spectrometry. […] 2,500 cells were added to each well of a 96 well plate and incubated with different concentrations of directly conjugated primary antibody for 15 min at room temperature. Cells were then incubated for 72 h at 37° C. and 5% CO2. At the end of the incubation period, 100 μl CellTiter-Glo® was added to each well and allowed to incubate for 5-10 min at room temperature before reading luminescence in a BMG ClarioSTAR plate reader. Data were then normalized to a maximum lysis control and plotted using graph pad prism software.

Row | Molecule | ADCP activity on A549 cells (in words) [1] | ADCC activity on A549 cells (in words) ([2]; comparisons are to AB-008873 or parent) | binding to A549 cells (in words) [3] | EC50 ([2]; A549 tumor cells) [pM] | ADCC - dAct rel. parent, Trial 1 ([2]; A549 tumor cells, Trial 1, relative to parent antibody) [%] | ADCC - dAct rel. parent, Trial 2 ([2]; A549 tumor cells, Trial 2, relative to parent antibody) [%] | anti-tumor activity, repeat study [4] | cytotoxic activity of ZLA conjugates (in words) [5]
1 | B1 | less than that of AB-008873; also recorded: some ADCP activity | less than that of AB-008873; also recorded: little binding and ADCC activity | less than that of AB-008873; also recorded: little binding and ADCC activity | – | – | – | – | –
2 | B2 | – | – | – | ~6 | 157.1 | 106.7 | anti-tumor activity | higher potency but similar maximum cytotoxicity compared to AB-010361-ZLA and AB-010361-IgG4-ZLA
